According to the supplement of paper PMC9170038:

What was measured:
MS2 coat protein [1] = test: apparent KD of MS2 coat protein, switch OFF state (with FMN for OFF switches, without FMN for ON switches); designed switch direction (-1 OFF switch, 1 ON switch): -1; higher = weaker reporter binding; conditions: FMN input: 0 or 200 uM; Eterna round: R93 (includes R88 designs)
Method in brief: (§1)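 Titration buffer: 100 mM Tris-HCl pH 7.5, 80 mM KCl, 4 mM MgCl2, without or with constant ligand. Designed RNA switches transcribed on-chip from Illumina sequencing clusters received SNAP-549-labelled MS2 coat protein in twofold steps from 0.7 or 1.5 nM to 3 µM. Apparent KD is the median per design of fits to normalised cluster binding curves.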

MS2 coat protein [2] = test: apparent KD of MS2 coat protein, switch ON state; designed switch direction (-1 OFF switch, 1 ON switch): -1; higher = weaker reporter binding; conditions: FMN input: 0 or 200 uM; Eterna round: R93 (includes R88 designs)
Method in brief: as §1

Row | Sequence | apparent KD of MS2 coat protein (MS2 coat protein [1]) | apparent KD of MS2 coat protein (MS2 coat protein [2])
1 | AAAAUGUCAGGAUAUGCGAAGGCAUCUGACAGAUGAGGAUUGCAGAAGGGACAUGAGGAUCACCCAUGUAAAAA | 0.0417 µM | 0.0667 µM
2 | AACAAACAUGAGGAUCACCCAUGUCAGGAUAUGCAAAUAACAAACAACAAACAACAAAGCAGAAGGGAUAGGAA [Mat - Exclusion 1 - Eli mod - D52] | 0.0212 µM | 0.0233 µM
3 | AGUUGGCGAGGAUAUACAUGAGGAUCACCCAUGUGAGAGAAAAAAAGGAAAAAAAAAAGUAGAAGGCGCUGACA [Mat - Exclusion 3 - Lego mod - D44] | 0.0691 µM | 0.043 µM
4 | AAAAAGUGAGGAUAUACAUGAGGAUCACCCAUGUAAUAAAAAAAAAGGGUGGAAGAAAGUAGAAGGCACCAAAA [Ex 3 May 48] | 0.142 µM | 0.0482 µM
5 | AAAAAGGUAGGAUAUACGAGGAGAAAUAAUAAAUAAAUAAAACAUGAGGAUCACCCAUGUAGAAGGACCAAAAA [Ex 2 sub 2] | 0.0269 µM | 0.0276 µM
6 | AAAAAGUGAGGAUAUACAUGAGGAUCACCCAUGUGUAUAAAAAAUUACACGAAAGAAUGUAGAAGGCACUAAAA [JL Mayanne Mod 3] | 0.0428 µM | 0.0182 µM
7 | AAAAAACAUGAGGAUCACCCAUGUUAGGAUAUGCUAUGGAAAAUAAAAAAUAAACAUAGCAGAAGGAACAAAAA [Mat - Exclusion 1 - Eli mod - D30] | 0.0326 µM | 0.0212 µM
8 | AAAAAGUGAGGAUAUACAUGAGGAUCACCCAUGUUAAAAAAAAAAAAAUAUAAAAAUAGUAGAAGGCACAAAAA [Default title] | 0.0413 µM | 0.0488 µM
9 | AACUGACAUGAGGAUCACCCAUGUCAGGAUAUGAUAUGUAAAAAAUAAAAAAUACUUAUCAGAAGGGACAUGAA [Design 43: Sub-opt C] | 0.0144 µM | 0.0158 µM
10 | UUUUGACAUGAGGAUCACCCAUGUCAGGAUAUAGUAGGACAAAAAAAAAAAAGUUCUACUAGAAGGGAUAUGAA [Design 16: Not So Super Stable 2] | 0.0267 µM | 0.0178 µM
11 | GACCAGUGAGGAUAUGUAAAAAAAAGAGAAGAGAAGAGAGAACAGAAGGCACAUGAGGAUCACCCAUGUAGGGA [Default title] | 0.17 µM | 0.143 µM
12 | AGCUAGUCAGGAUAUACGAACAUGUCAAAAGACGUGAAAAAACAUGAGGAUCACCCAUGUAGAAGGGACUAGCA [Mat - Exclusion 2 - JL mod - D11] | 0.0146 µM | 0.0188 µM
13 | AACAAGUGAGGAUAUCGGAAAAGUAAAUAAGUAAAACAAAACGAGAAGGCACAUGAGGAUCACCCAUGUAAAUA [JR_Exc004_Sub014] | 0.0174 µM | 0.017 µM
14 | AAGUAGCUAGGAUAUACAUAGAUACAGAUUCAUGUAGAACUACAUGAGGAUCACCCAUGUAGAAGGAGCUAAUA [AJ 35] | 0.0603 µM | 0.0314 µM
15 | CUCAAGUUAGGAUAUCAAAGAAAAGAAGAGAAAGAAAAGAAUGAGAAGGAACAUGAGGAUCACCCAUGUAAGAA [EteRNA is fun!] | 0.0224 µM | 0.0334 µM
16 | AAAAACAGAGGAUAUACAUGAGGAUCACCCAUGUAAAAAUGUAGAAGGCUGAAAAAAAAAAGAAGGAAAAAAAA [Meechl Ex3 R2 m0] | 0.0232 µM | 0.0216 µM
17 | AAAAAACAUGAGGAUCACCCAUGUCAGGAUAUCCGGUUCUUGAAAAUCAAGAGGCGUUGGAGAAGGGACAUUCC [Chica Displaced 14 - Jieux - Exclusion 1] | 0.0744 µM | 0.0279 µM
18 | AACAAGUCAGGAUAUUCGAAAAGUAAAUAAGUAAAACAAAAGAAGAAGGGACAUGAGGAUCACCCAUGUAAAUA [JR_Exc004_Sub016] | 0.0279 µM | 0.0461 µM
19 | AAAAAUGGAGGAUAUACAUGAGGAUCACCCAUGUGUAACUAUACUAAGCACUCCUCACGUAGAAGGCCAAAAAA [Gilly Gone Silly 13 - Jieux - Exclusion 3] | 0.113 µM | 0.0553 µM
20 | AAAGGGUCAGGAUAUCGAUUAAUAAUAAAAUAAAUGAAGAUCGAGAAGGGACAUGAGGAUCACCCAUGUAUAAC [May 79] | 0.0646 µM | 0.0418 µM
21 | AAAAAGAGAGGAUAUGCAGGAGGUAAGGUCAAAAAAAAAAAACAUGAGGAUCACCCAUGUAGAAGGUUUAAAAA [Ecls2-VI] | 0.0235 µM | 0.0293 µM
22 | AAUAGUGAAGGAUAUACAGGAGAAGAAAGAUAAAAGAAAGAACAUGAGGAUCACCCAUGUAGAAGGUCAGAAGU [JR_Exc002_Sub1229] | 0.0199 µM | 0.0271 µM
23 | AAAAAACAUGAGGAUCACCCAUGUGAGGAUAUGCAAAAAUAAAAUAAAAUAAUAAAAAGCAGAAGGCACAAAAA [Amethyst 76] | 0.0264 µM | 0.0205 µM
24 | AAGAACGGAGGAUAUACAUGAGGAUCACCCAUGUAAAAGAAAGAGGGAAAAGAGAAAAGUAGAAGGCCGAAGAA [Haaibre Alexander IV] | 0.0603 µM | 0.028 µM
25 | AAAAAGGGAGGAUAUACAUGAGGAUCACCCAUGUGUCAGACGAAAAAGAGUCUGAAGUGUAGAAGGCCCAAAAA [65%, Moding Exclusion3-cac2, 1] | 0.0407 µM | 0.0259 µM
26 | AAGAAUGCAGGAUAUACAAGAAAGAAAGAAAAGAAAAGAAAACAUGAGGAUCACCCAUGUAGAAGGGCAUAGAA [EteRNA is fun!] | 0.025 µM | 0.0326 µM
27 | AGUUGGCGAGGAUAUACAUGAGGAUCACCCAUGUGAGAGAAAAAAAGGAGAAAAAAAAGUAGAAGGCGCUGACA [Ruth Fulton Benedict] | 0.123 µM | 0.0423 µM
28 | AAAGGGCGAGGAUAUACAUGAGGAUCACCCAUGUAAAAAACAUAAUAAAAGAAUUUAUGUAGAAGGCGCCCAAA [Ruby 60] | 0.0144 µM | 0.0152 µM
29 | AACAGUACAGGAUAUACAUGAGGAUCACCCAUGUGAAAAUAAAGUGGCGUACCACAAAGUAGAAGGGUACUGAA [Mat - Exclusion 3 - JL mod - D26] | 0.124 µM | 0.0267 µM
30 | AAAAAACAUGAGGAUCACCCAUGUCAGGAUAUCAUAAAAAAAAAAAAAAAAAAAAAAGUGAGAAGGGACAAAAA [exclusion1-cac1] | 0.0327 µM | 0.0429 µM
